From publication PMC9036127, “The nuclease activity of DNA2 promotes exonuclease 1–independent mismatch repair” (The Journal of Biological Chemistry, 2022)

Target: T1, Human MutSα (MSH2-MSH6 heterodimer) (human, UniProt P43246 1-934; P52701 1-1360)
T1 construct: MSH2, human, subunit of MutSα; MSH6, human, subunit of MutSα
Assay: co-IP; purified proteins; MutSα- or MutLα-containing agarose beads (antibodies against MSH2 or MLH1), DNA2 in solution; for MutSα 30-μl mixtures with MutSα (3.4 pmol) and DNA2 (3.4 pmol); eluted fractions analyzed by immunoblotting
Conditions: both partners purified

T1 sequence (P43246 whole entry, chain 1 of 2): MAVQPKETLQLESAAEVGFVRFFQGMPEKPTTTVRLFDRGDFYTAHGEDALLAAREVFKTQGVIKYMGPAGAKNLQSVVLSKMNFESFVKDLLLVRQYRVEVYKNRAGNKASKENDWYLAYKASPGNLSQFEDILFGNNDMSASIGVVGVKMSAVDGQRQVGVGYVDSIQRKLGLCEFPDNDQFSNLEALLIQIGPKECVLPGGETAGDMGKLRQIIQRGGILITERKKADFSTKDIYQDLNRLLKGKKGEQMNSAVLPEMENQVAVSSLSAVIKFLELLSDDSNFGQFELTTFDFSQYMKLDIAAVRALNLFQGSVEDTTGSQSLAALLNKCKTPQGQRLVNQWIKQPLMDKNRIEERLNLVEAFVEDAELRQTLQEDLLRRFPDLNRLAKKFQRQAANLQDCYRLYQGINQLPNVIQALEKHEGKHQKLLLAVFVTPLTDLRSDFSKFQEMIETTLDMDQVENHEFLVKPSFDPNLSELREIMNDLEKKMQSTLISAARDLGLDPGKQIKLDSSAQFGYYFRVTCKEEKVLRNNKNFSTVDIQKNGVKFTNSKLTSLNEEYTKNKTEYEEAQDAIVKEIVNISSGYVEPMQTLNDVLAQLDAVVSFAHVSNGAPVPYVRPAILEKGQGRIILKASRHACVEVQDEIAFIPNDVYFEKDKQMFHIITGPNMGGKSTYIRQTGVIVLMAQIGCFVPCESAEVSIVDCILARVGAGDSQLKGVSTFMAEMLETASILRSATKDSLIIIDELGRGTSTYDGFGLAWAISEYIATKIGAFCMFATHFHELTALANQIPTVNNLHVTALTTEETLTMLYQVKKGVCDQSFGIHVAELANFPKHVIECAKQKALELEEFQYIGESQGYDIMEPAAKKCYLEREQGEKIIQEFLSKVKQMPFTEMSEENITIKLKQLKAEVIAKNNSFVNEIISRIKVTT
T1 sequence (P52701 whole entry, chain 2 of 2): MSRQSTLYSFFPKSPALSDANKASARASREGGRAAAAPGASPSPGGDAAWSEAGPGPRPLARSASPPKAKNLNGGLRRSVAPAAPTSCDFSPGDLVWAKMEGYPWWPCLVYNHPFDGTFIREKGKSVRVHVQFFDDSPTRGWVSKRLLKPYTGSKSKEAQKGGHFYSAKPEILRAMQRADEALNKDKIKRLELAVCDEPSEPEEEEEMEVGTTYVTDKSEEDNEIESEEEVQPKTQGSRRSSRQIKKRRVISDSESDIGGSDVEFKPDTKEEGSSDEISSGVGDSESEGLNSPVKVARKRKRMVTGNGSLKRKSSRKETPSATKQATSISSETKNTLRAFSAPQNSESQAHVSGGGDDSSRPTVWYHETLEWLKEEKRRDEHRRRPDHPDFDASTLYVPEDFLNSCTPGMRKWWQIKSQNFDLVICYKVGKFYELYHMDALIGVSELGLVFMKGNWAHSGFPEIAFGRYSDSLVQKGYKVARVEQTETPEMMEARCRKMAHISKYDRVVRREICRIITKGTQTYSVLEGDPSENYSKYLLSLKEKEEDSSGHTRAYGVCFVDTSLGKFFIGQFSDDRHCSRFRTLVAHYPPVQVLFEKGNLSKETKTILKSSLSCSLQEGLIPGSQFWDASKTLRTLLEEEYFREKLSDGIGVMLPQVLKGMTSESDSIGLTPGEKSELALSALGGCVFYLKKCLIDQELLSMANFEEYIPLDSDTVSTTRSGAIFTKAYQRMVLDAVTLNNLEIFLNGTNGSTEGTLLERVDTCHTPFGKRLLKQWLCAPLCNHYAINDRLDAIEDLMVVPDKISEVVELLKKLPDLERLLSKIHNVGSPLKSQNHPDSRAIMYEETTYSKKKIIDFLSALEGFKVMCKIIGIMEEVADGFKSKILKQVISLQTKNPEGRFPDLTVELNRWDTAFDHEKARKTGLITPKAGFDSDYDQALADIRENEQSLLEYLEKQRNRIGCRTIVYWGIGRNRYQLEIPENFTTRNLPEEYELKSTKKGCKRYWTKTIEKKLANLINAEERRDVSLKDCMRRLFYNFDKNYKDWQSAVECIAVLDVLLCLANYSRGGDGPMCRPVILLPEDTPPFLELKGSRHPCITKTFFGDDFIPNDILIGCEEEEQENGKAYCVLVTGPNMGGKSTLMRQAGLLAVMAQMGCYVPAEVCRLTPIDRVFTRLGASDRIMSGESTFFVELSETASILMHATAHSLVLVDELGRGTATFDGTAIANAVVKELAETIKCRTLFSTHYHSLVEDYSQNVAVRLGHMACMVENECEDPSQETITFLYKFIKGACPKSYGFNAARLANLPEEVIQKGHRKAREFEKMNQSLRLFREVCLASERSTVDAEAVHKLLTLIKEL

B1: Human DNA2 nuclease/helicase (enzyme, UniProt P51530 1-1060, looked up)
chain: MEQLNELELLMEKSFWEEAELPAELFQKKVVASFPRTVLSTGMDNRYLVLAVNTVQNKEGNCEKRLVITASQSLENKELCILRNDWCSVPVEPGDIIHLEGDCTSDTWIIDKDFGYLILYPDMLISGTSIASSIRCMRRAVLSETFRSSDPATRQMLIGTVLHEVFQKAINNSFAPEKLQELAFQTIQEIRHLKEMYRLNLSQDEIKQEVEDYLPSFCKWAGDFMHKNTSTDFPQMQLSLPSDNSKDNSTCNIEVVKPMDIEESIWSPRFGLKGKIDVTVGVKIHRGYKTKYKIMPLELKTGKESNSIEHRSQVVLYTLLSQERRADPEAGLLLYLKTGQMYPVPANHLDKRELLKLRNQMAFSLFHRISKSATRQKTQLASLPQIIEEEKTCKYCSQIGNCALYSRAVEQQMDCSSVPIVMLPKIEEETQHLKQTHLEYFSLWCLMLTLESQSKDNKKNHQNIWLMPASEMEKSGSCIGNLIRMEHVKIVCDGQYLHNFQCKHGAIPVTNLMAGDRVIVSGEERSLFALSRGYVKEINMTTVTCLLDRNLSVLPESTLFRLDQEEKNCDIDTPLGNLSKLMENTFVSKKLRDLIIDFREPQFISYLSSVLPHDAKDTVACILKGLNKPQRQAMKKVLLSKDYTLIVGMPGTGKTTTICTLVRILYACGFSVLLTSYTHSAVDNILLKLAKFKIGFLRLGQIQKVHPAIQQFTEQEICRSKSIKSLALLEELYNSQLIVATTCMGINHPIFSRKIFDFCIVDEASQISQPICLGPLFFSRRFVLVGDHQQLPPLVLNREARALGMSESLFKRLEQNKSAVVQLTVQYRMNSKIMSLSNKLTYEGKLECGSDKVANAVINLRHFKDVKLELEFYADYSDNPWLMGVFEPNNPVCFLNTDKVPAPEQVEKGGVSNVTEAKLIVFLTSIFVKAGCSPSDIGIIAPYRQQLKIINDLLARSIGMVEVNTVDKYQGRDKSIVLVSFVRSNKDGTVGELLKDWRRLNVAITRAKHKLILLGCVPSLNCYPPLEKLLNHLNSEKLIIDLPSREHESLCHILGDFQRE
notes: DNA2 nuclease/helicase, human; wild type; source: insect Sf9 cells (baculovirus, codon-optimized gene), purified (α-Flag M2 beads, MonoS column)
B1: binds.
